For assay [1], the target named is AV2 protein of tomato leaf curl Palampur virus, untagged, in N. benthamiana leaves (Tomato leaf curl Palampur virus). Briefly: SDS-PAGE and western blot; leaf extracts of N. benthamiana (PVX-infiltrated at 14 dpi, ToLCPalV-infected, TRV-infiltrated), boiled 5 minutes, 10% SDS-PAGE, detection with AV2 antiserum; dimer told from the band's size. (In western blotting, separated proteins are transferred to a membrane and probed.)

In assay [2] the target is AV2Δ10N, untagged, from PVX-AV2Δ10N in N. benthamiana leaves (Tomato leaf curl Palampur virus). Described as above.

As usually defined, the stoichiometry N is the number of molecules, sites or subunits per partner or assembly.

As to “AV2 protein of tomato leaf curl Palampur virus, untagged, in N. benthamiana leaves (natural protein)”, in assay [1], the stoichiometry N worked out at 2.
With “AV2Δ10N, untagged, from PVX-AV2Δ10N in N. benthamiana leaves (domain or fragment)”, the stoichiometry N in assay [2] was 2.

Values taken from article PMC5775426.
